Reference: US10934559B2, “Hypersensitive ABA receptors” (The Regents of the University of California, priority 2014, dated 2021)
Substitutions are numbered along the chain they refer to. In names and notes the source's numbering stands. Like-named read-outs stand apart in the source and are kept apart here.

B1: A160V: PYR1 mutant A160V, SEQ ID NO:141; for ITC the cleaved recombinant protein with NH2-terminal QS appendage (protein)
chain: MPSELTPEERSELKNSIAEFHTYQLDPGSCSSLHAQRIHAPPELVWSIVRRFDKPQTYKHFIKSCSVEQNFEMRVGCTRDVIVISGLPANTSTERLDILDDERRVTGFSIIGGEHRLTNYKSVTTVHRFEKENRIWTVVLESYVVDMPEGNSEDDTRMFVDTVVKLNLQKLATVAEAMARNSGDGSGSQVT
modifications: N-terminal QS appendage for ITC; synthetic Arabidopsis PYR1 mutant A160V
B2: E141T: PYR1 mutant E141T, SEQ ID NO:135 (protein)
chain: B1 chain with E141T, V160A
modifications: synthetic Arabidopsis PYR1 mutant E141T
B3: E141I: PYR1 mutant E141I, SEQ ID NO:131 (protein)
chain: B1 chain with E141I, V160A
modifications: synthetic Arabidopsis PYR1 mutant E141I
B4: V81I: PYR1 mutant V81I, SEQ ID NO:126 (protein)
chain: B1 chain with V81I, V160A
modifications: synthetic Arabidopsis PYR1 mutant V81I
B5: V81Y: PYR1 mutant V81Y, SEQ ID NO:127 (protein)
chain: B1 chain with V81Y, V160A
modifications: synthetic Arabidopsis PYR1 mutant V81Y
B6: E141L: PYR1 mutant E141L, SEQ ID NO:132 (protein)
chain: B1 chain with E141L, V160A
modifications: synthetic Arabidopsis PYR1 mutant E141L
B7: A160I: PYR1 mutant A160I, SEQ ID NO:140 (protein)
chain: B1 chain with V160I
modifications: synthetic Arabidopsis PYR1 mutant A160I
B8: E141V: PYR1 mutant E141V, SEQ ID NO:136 (protein)
chain: B1 chain with E141V, V160A
modifications: synthetic Arabidopsis PYR1 mutant E141V
B9: E141C: PYR1 mutant E141C, SEQ ID NO:130 (protein)
chain: B1 chain with E141C, V160A
modifications: synthetic Arabidopsis PYR1 mutant E141C
B10: E141W: PYR1 mutant E141W, SEQ ID NO:137 (protein)
chain: B1 chain with E141W, V160A
modifications: synthetic Arabidopsis PYR1 mutant E141W
B11: F61L: PYR1 mutant F61L, SEQ ID NO:124 (protein)
chain: B1 chain with F61L, V160A
modifications: synthetic Arabidopsis PYR1 mutant F61L
B12: E141N: PYR1 mutant E141N, SEQ ID NO:134 (protein)
chain: B1 chain with E141N, V160A
modifications: synthetic Arabidopsis PYR1 mutant E141N
B13: F61M: PYR1 mutant F61M, SEQ ID NO:125 (protein)
chain: B1 chain with F61M, V160A
modifications: synthetic Arabidopsis PYR1 mutant F61M
B14: I110S: PYR1 mutant I110S, SEQ ID NO:129 (protein)
chain: B1 chain with I110S, V160A
modifications: synthetic Arabidopsis PYR1 mutant I110S
B15: E141Y: PYR1 mutant E141Y, SEQ ID NO:138 (protein)
chain: B1 chain with E141Y, V160A
modifications: synthetic Arabidopsis PYR1 mutant E141Y
B16: E141M: PYR1 mutant E141M, SEQ ID NO:133 (protein)
chain: B1 chain with E141M, V160A
modifications: synthetic Arabidopsis PYR1 mutant E141M
B17: A160C: PYR1 mutant A160C, SEQ ID NO:139 (protein)
chain: B1 chain with V160C
modifications: synthetic Arabidopsis PYR1 mutant A160C
B18: I110C: PYR1 mutant I110C, SEQ ID NO:128 (protein)
chain: B1 chain with I110C, V160A
modifications: synthetic Arabidopsis PYR1 mutant I110C

Key:
[1] = system: HAB1; assay: PYR1 mutant-HAB1 yeast two-hybrid assay under different ABA concentrations (X-gal staining); format: cell-based; details: lowest (+)-ABA concentration giving detectable X-gal staining; S. cerevisiae Y190 with pACT-HAB1; 30° C., 48 hours
Source text: The affinity of a receptor for a target ligand is typically determined by non-covalent interactions between ligand-binding residues and the ligand. Mutations in such residues can have negative, positive or neutral effects on the strength of the receptor—ligand interaction. The affinity of a receptor-ligand interaction is intrinsically correlated with the concentration of ligand required to elicit biological effects, with high affinity ligands requiring lower concentrations relative to low affinity ligands. A mutant receptor with increased affinity for a ligand can in some cases elicit greater biological effect relative to a wild type receptor, when both are activated under identical conditions by the same concentration of activating ligand. Thus, mutations that make a receptor hypersensitive to a ligand can be useful for engineering organisms that elicit stronger responses to the ligand relative to wild type. […] Based on these considerations, we set out to systematically establish specific ABA receptor mutations that increase ABA responsiveness. This was done by testing a collection of PYR1 variants with all possible single amino acid substitution mutations in ligand binding residues. Thus we conducted site-saturated mutagenesis of ABA-contacting residues, which we define as those that are within 5A or ABA or ABA-contacting water residues in available X-ray coordinates. This collection of mutants was constructed previously, as described in PCT Application No. PCT/US2012/043121 and Mosquna et al., Proc Natl Acad Sci USA 108: 20838-20843 (2011). This collection of mutants was made by mutagenizing a previously described pBD GAL-PYR1 template (Park, S.-Y., et al. Science 324, 1068-1071 ([…])). In response to ABA, this particular plasmid encodes a fusion protein that binds to a co-expressed GAL4 activation domain-HAB1 fusion protein, encoded by the plasmid pACT-HAB1. This binding reconstitutes a functional GAL4 transcriptional activator and subsequent transcription of a β-galactosidase reporter gene, which in turn enables colorimetric based detection of agonist promoted receptor-PP2C interaction when lysed cells are exposed to the substrate X-gal. The mutant clones were individually transformed into S. cerevisiae strain Y190 containing pACT-HAB1. Yeast transformants were selected for the presence of plasmids on synthetic dextrose (SD) agar plates lacking Leu and Trp (SD-LT) and examined for PP2C interactions by using X-gal staining to monitor β-gal reporter gene expression levels. Individual clones were arrayed into 96 well plates and then spotted onto SD-LT lawn (i.e. one-well) plates containing 0, 0.5 or 5.0 μM (+)-ABA. Each assay plate contained 95 mutant clones and one wild type PYR1 positive control clone. The spotted cells were cultured at 30° C. for 48 hours after which they were lysed by chloroform and stained with an X-gal solution, as previously described (Park, S.-Y., et al. (2009) Science 324, 1068-1071). […] After this initial screening exercise, all positives clones were retested on plates containing […] and stained for galactosidase activity as described above. Mutant clones showing detectable staining on 0.5 μM (+)-ABA or lower were scored as hypersensitive mutants. FIG. 1 depicts results of PYR1 mutant-HAB1 interactions as assayed in a yeast two-hybrid assay under different ABA concentrations, with darker spots indicating increased interaction.

[2] = previously measured, Dupeux et al. 2010; read-out: affinity of wild type PYR1 (Kd) measured using ITC; cited from earlier work
[3] = isothermal titration calorimetry (ITC) of receptor-ABA binding; details: 600 μM (+)-ABA injected into 60 μM receptor; PBS, 1 mM 2-mercaptoethanol, 0.012% DMSO; single binding site model
Source text: The ligand sensitivity of PYR1 and HAB1 yeast two hybrid strains generally correlates with receptor affinity. To examine if this was the case for the hypersensitive mutations identified by our functional screens, we conducted isothermal titration calorimetry (ITC) to measure the heat produced by a mutant receptor-ABA binding reaction and infer the ligand binding dissociation constant (Kd). […] The PYR1-A160V mutant receptor was expressed in E. coli BL21(DE3) as a fusion to the small ubiquitin like protein SUMO, using the vector pSUMO (LifeSensors, USA), which improves the solubility of proteins in E. coli and contains an NH2-terminal hexa-histidine tag that facilitates purification using immobilized metal affinity chromatography (IMAC). PYR1 A160V was cloned into pSUMO by using PCR product generated from a pBD-PYR1(A160V) yeast two hybrid construct as template, and sequence validated. A short flexible linker and tobacco etch virus (TEV) protease cleavage site (sequence NH2-[…]-COOH; SEQ ID NO:411) was incorporated in between the SUMO tag and the receptor to enable cleavage of the recombinant protein by TEV protease, which yields PYR1(A160V) plus an NH2-terminal QS appendage. […]

Row | Molecule | Minimal conc. For ABA response [1] | Kd [2] | Kd [3]
1 | WT: Arabidopsis wildtype PYR1 ABA receptor, SEQ ID NO:1 [reference compound] | 1 µM | 97 ± 36 µM | –
2 | B1 | 0.25 µM | – | 1.5 µM
3 | B2 | 0.5 µM | – | –
4 | B3 | 0.25 µM | – | –
5 | B4 | 0.25 µM | – | –
6 | B5 | 0.25 µM | – | –
7 | B6 | 0.25 µM | – | –
8 | B7 | 0.25 µM | – | –
9 | B8 | 0.5 µM | – | –
10 | B9 | 0.5 µM | – | –
11 | B10 | 0.5 µM | – | –
12 | B11 | 0.25 µM | – | –
13 | B12 | 0.5 µM | – | –
14 | B13 | 0.25 µM | – | –
15 | B14 | 0.5 µM | – | –
16 | B15 | 0.25 µM | – | –
17 | B16 | 0.25 µM | – | –
18 | B17 | 0.25 µM | – | –
19 | B18 | 0.25 µM | – | –
